Test results from patent US20060115482A1, “Modifications of histone proteins as indicators of cell proliferation and differentiation” (The Regents of the University of California, priority 2004, published 2006).
Substitutions are numbered along the chain they refer to. Names may count otherwise.

B1: CTK: COOH-terminal kinase domain of Drosophila TAF1, amino acids 1496-2132 (protein)
chain: LFPVSAKKVPDYYRVVTKPMDLQTMREYIRQRRYTSREMFLEDLKQIVDNSLIYNGPQSAYTLAAQRMFSSCFELLAEREDKLMRLEKAINPLLDDDDQVALSFIFDKLHSQIKQLPESWPFLKPVNKKQVKDYYTVIKRPMDLETIGKNIEAHRYHSRAEYLADIELIATNCEQYNGSDTRYTKFSKKILEYAQTQLIEFSEHCGQLENNIAKTQERARENAPEFDEAWGNDDYNFDRGSRASSPGDDYIDVEGHGGHASSSNSIHRSMGAEAGSSHTAPAVRKPAPPGPGEVKRGRGRPRKQRDPVEEVKSQNPVKRGRGRPRKDSLASNMSHTQAYFLDEDLQCSTDDEDDDEEEDFQEVSEDENNAASILDQGERINAPADAMDGMFDPKNIKTEIDLEAHQMAEEPIGEDDSQQVAEAMVQLSGVGGYYAQQQQDESMDVDPNYDPSDFLAMHKQRQSLGEPSSLQGAFTNFLSHEQDDNGPYNPAEASTSAASGADLGMDASMAMQMAPEMPVNTMNNGMGIDDDLDISESDEEDDGSRVRIKKEVFDDGDYALQHQQMGQAASQSQIYMVDSSNEPTTLDYQQPPQLDFQQVQEMEQLQHQVMPPMQSEQLQQQQTPQGDNDYAWTF
B2: CTK(D1538A): CTK with catalytically important aspartic acid of the S/T-kinase motif mutated to alanine (protein)
chain: B1 chain with D43A

Key:
H2B-S33 = experiment: In vitro kinase assay (γ32P-ATP, SDS-PAGE, autoradiography, scintillation counting); type: biochemical, Drosophila; conditions: for H2B phosphorylation in vitro (qualitative): autoradiography; for Turnover values for phosphorylation of H2B-S33: 3 μg enzyme
Experimental: Kinase reactions were programmed with 1 μg RAP74, 1 μg recombinant histone, 2 μg polynucleosomes, 2 μg histone octamers, or 300 ng histone peptide, and contained 400 ng endogenous TFIID or 250 ng recombinant TAF1 derivatives and 0.25 μCi γ^32P-ATP. Reactions were performed in 20 μl kinase buffer (25 mM Hepes (pH 7.6), 10% glycerol, and 400 mM NaCl) for 25 min at 25° C. Reaction products were analyzed by SDS-PAGE using 8%—(for recombinant proteins), 15%—(for histones), or 18% (for peptides) gels. After electrophoresis, gels were dried and exposed to X-ray film.
To quantify kinase reactions, reactions products were separated by SDS-PAGE and detected by coomassie blue staining. Radiolabeled H2B was detected by autoradiography, excised from the gel, and analyzed by scintillation counting.
To measure the kinase activity of TFIID, TAF1, CTK, and mutant CTK-derivatives, reaction products of in vitro kinase assays were separated by SDS-PAGE and stained with coomassie blue. Radiolabeled H2B, H2BT and controls were excised from the gel and incorporation of radioactivity was determined by scintillation counting. Turnover values for phosphorylation of H2B-S33 were determined by measuring incorporation of radiolabeled phosphate groups into H2B in the presence of 3 μg TAF1, TFIID, or CTK-derivatives and 3 μg H2B or 12 μg nucleosomes. The turnover values were: TFIID (nucleosomes: 3.3/sec; H2B: 2.6/sec); TAF1: (nucleosomes: 2.5/sec; H2B: 2.5/sec); CTK: (nucleosomes: 2.6/sec; H2B: 4.4/sec).

acetylated H4 = target: T1, acetylated H4 (Homo sapiens, UniProt P62805); experiment: Acetylated-lysine interaction assay; type: binding; conditions: H4 peptide acetylated at lysine 5, 8, 12, 16
T1 construct: H4 peptide (amino acids 1-20); host or cells: H4 peptide made by chemical synthesis; Flag-CTK proteins made in Sf9 cells with baculovirus
Experimental: FIG. 6. (A) Silver stained gel corresponding to the autoradiograms shown inn FIG. 2B) of in vitro kinase assays containing γ^32P-ATP, native nucleosomes (top) or recombinant H2B (bottom), and TFIID, TAF1, or TAF1 derivatives (B) CTK(D1548A) binds acetylated histone H4. Western blot of protein:protein interaction assays. Anti-Flag antibody agarose beads loaded with recombinant Flag-CTK, Flag-CTK(D1548), or FLAG-110 (beads) were incubated with H4 peptide (amino acids 1-20) or H4 peptide [acetyl(H4)] acetylated at lysine 5, 8, 12, 16. Precipitated peptides were separated by SDS-PAGE, electrophoretically transferred onto nitrocellulose, and detected using antibodies to H4 (top) and acetylated H4 (bottom). (C) The CTK phosphorylates serine residues in H2BT. A schematic representation of H2BT is shown on top with highlighted positions of threonines (T) and serines (S). […]
The interaction of CTK and CTK(D1548A) with unmodified and acetylated H4 peptides was monitored as described (14, 15). […]

Molecule | H2B phosphorylation in vitro (qualitative) (H2B-S33) | Turnover values for phosphorylation of H2B-S33 (H2B-S33; substrate 3 μg H2B) [s⁻¹] | Turnover values for phosphorylation of H2B-S33 (H2B-S33; substrate 12 μg nucleosomes) [s⁻¹] | binding to acetylated H4 in vitro (acetylated H4)
B1 | strongly phosphorylated H2B | 4.4 | 2.6 | 
B2 | weak autophosphorylation and H2B trans-phosporylation activities |  |  | retains the ability to bind acetylated H4 in vitro
